{"source": "paper PMC5718613", "biological_target": "S. aureus flotillin (FloA), fused to T25 or T18 fragments of an adenylate cyclase (S. aureus)", "sequence (A6QHB6 whole entry, the tested form may be a part)": "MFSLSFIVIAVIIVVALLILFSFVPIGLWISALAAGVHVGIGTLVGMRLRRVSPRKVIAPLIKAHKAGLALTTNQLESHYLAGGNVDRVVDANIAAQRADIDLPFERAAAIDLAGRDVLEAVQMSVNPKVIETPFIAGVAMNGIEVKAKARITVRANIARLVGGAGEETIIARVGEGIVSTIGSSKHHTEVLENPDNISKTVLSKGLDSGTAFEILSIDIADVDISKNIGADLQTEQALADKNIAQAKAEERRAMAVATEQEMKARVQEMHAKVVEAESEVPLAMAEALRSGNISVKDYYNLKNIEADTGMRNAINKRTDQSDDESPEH", "test": "two-hybrid; bacterial two-hybrid in E. coli BTH101; FloA and T7SS membrane proteins fused C- and N-terminally with T18 and T25 fragments of adenylate cyclase; X-Gal plates (48 h, 30°C) and β-galactosidase activity in Miller Units; a 700 Miller Unit threshold defines positive and negative signals", "data": [{"substance": "EssB, fused to T25 or T18 fragments of an adenylate cyclase (from UniProt Q2G185 1-444) (natural protein)", "values": [{"measurement": "β-galactosidase activity (two-hybrid signal)", "result": "> 2000", "unit": "Miller Units"}]}]}
